{"source": "patent US7494767B2", "about": "“Assay for TSG101 as inhibitors of HIV production” (priority 2001, dated 2009)", "molecules": {"B1": {"name": "pIND-h-Tsg101-FLAG: FLAG-tagged wild-type human Tsg101 overexpressed from an ecdysone-inducible plasmid (protein)", "chain": "MAVSESQLKKMVSKYKYRDLTVRETVNVITLYKDLKPVLDSYVFNDGSSRELMNLTGTIPVPYRGNTYNIPICLWLLDTYPYNPPICFVKPTSSMTIKTGKHVDANGKIYLPYLHEWKHPQSDLLGLIQVMIVVFGDEPPVFSRPISASYPPYQATGPPNTSYMPGMPGGISPYPSGYPPNPSGYPGCPYPPGGPYPATTSSQYPSQPPVTTVGPSRDGTISEDTIRASLISAVSDKLRWRMKEEMDRAQAELNALKRTEEDLKKGHQKLEEMVTRLDQEVAEVDKNIELLKKKDEELSSALEKMENQSENNDIDEVIIPTAPLYKQILNLYAEENAIEDTIFYLGEALRRGVIDLDVFLKHVRLLSRKQFQLRALMQKARKTAGLSDLY", "modifications": "left off: small tags and cut ends", "notes": "FLAG-tagged wild-type human Tsg101 overexpressed from an ecdysone-inducible plasmid"}, "B2": {"name": "p1-p6: p1-p6 region of HIV-1 Pr55Gag fused to GAL4 DNA-binding domain (protein)", "chain": "MKLLSSIEQACDICRLKKLKCSKEKPKCAKCLKNNWECRYSPKTKRSPLTRAHLTEVESRLERLEQLFLLIFPREDLDMILKMDSLQDIKALLTGLFVQDNVNKDAVTDRLASVETDMPLTLRQHRISATSSSEESSNKGQRQLTVSGKIWPSYKGRPGNFLQSRPEPTAPPFLQSRPEPTAPPEESFRSGVETTTPPQKQEPIDKELYPLTSLRSLFGNDPSSQ"}, "B3": {"name": "SD5-59 (protein)", "chain": "MAVSESQLKKMVSKYKYRDLTVRETVNVITLYKDLKPVLDSYVFNDGSSRELMNLTGTIPVPYRGNTYNIPICLWLLDTYPYNPPICFVKPTSSMTIKTGKHVDANGKIYLPYLHEWKHPQSDLLGLIQVMIVVFGDEPPVFSRPISASYPPYQATGPPNTSYMPGMPGGISPYPSGYPPNPSGYPGCPYPPGGPYPATTSSQYPSQPPVTTVGPSRDGTISEDTIRASLISAVSDKLRWRMKEEMDRAQAELNALKRTEEDLKKGHQKLEEMVTRLDQEVAEVDKNIELLKKKDEELSSALEKMENQSENNDIDEVIIPTAPLYKQILNLYAEENAIEDTIFYLGEGGVIDLDVFLKHVRLLSRKQFQLRALMQKARKTAGLSDLY", "modifications": "left off: small tags and cut ends"}}, "key": {"[1]": {"tested_on": "viral protein (Gag)", "assay": "Intracellular steady-state level of viral proteins in COS-1 cells (S1 and P1 fractions, Western blot, anti-CA)", "format": "cell-based, HIV-1", "details": "for Gag Δp6 in S1 and P1 fractions: gagΔp6, same conditions; for viral protein in P1 fraction / viral protein in S1 fraction: wild-type gag, pol, rev, conditions of greatest inhibition"}, "[2]": {"tested_on": "HIV-1 particles", "assay": "Release of HIV-1 virus-like particles from transfected COS-1 cells (Western blot of particles, anti-CA)", "format": "cell-based", "details": "for amount of mature CA in released virus, of the control (0 μM pa) level: COS-1 cells with rev, pol and wild-type gag"}, "[3]": {"target": "T1, Tsg101 (Homo sapiens, UniProt Q99816)", "T1 construct": "expressed in transfected cells; host or cells: Saccharomyces cerevisiae Y153", "details": "N- or C-terminally deleted Pr55^Gag fused to GAL4 DNA-binding domain; FIG. 1A", "procedure": "2-hybrid assay. […] Vectors pGBT9 and pGAD424 encoding PR55^Gag or Tsg101 sequences as GAL4 activation and binding domain fusion proteins were transformed into Saccharomyces cerevisiae Y153 using procedures previously described (Bartel, P. L. & Fields, S., 1995, Methods Enzymol. 254,241-263). Briefly, interactions were detected using a selection for Trp and Leu prototrophy followed by quantitative assay for LacZ activation. […] Mapping of the interacting domain was performed using vectors encoding the DNA-binding or activation domain of the yeast GAL4 transcriptional activator protein fused to truncations, deletions or point mutations of the proteins. […] Expression of all GAL4 fusions was checked by analysis of yeast cell extracts by SDS-gel electrophoresis and Western blotting with an antibody directed against the GAL4 binding domain (Upstate Biochemical) and GAL4 transactivation domain (Santa Cruz)."}, "[4]": {"details": "increasing expression, pa 1 and 5 μM, wild-type gag"}}, "data": [{"molecule": "B1", "values": [{"measurement": "Gag Δp6 in S1 and P1 fractions", "setting": "[1]", "value": "detected in both S1 and P1 fractions"}, {"measurement": "viral protein in P1 fraction", "setting": "[1]", "value": "no detectable viral protein"}, {"measurement": "viral protein in S1 fraction", "setting": "[1]", "value": "no detectable viral protein"}, {"measurement": "amount of mature CA in released virus, of the control (0 μM pa) level", "setting": "[2]; 1 μM pa", "value": "~60", "unit": "%"}, {"measurement": "amount of mature CA in released virus, of the control (0 μM pa) level", "setting": "[2]; 5 μM pa", "value": "~30", "unit": "%"}, {"measurement": "release of immature particles containing GagΔp6", "setting": "[2]; Tsg101 overexpression, pa 0, 1, 5 μM, gagΔp6", "value": "not significantly affected"}]}, {"molecule": "B2", "values": [{"measurement": "LacZ reporter gene activation signal", "setting": "[3]", "value": "retained"}]}, {"molecule": "B3", "values": [{"measurement": "Gag Δp6 in S1 and P1 fractions", "setting": "[1]", "value": "accumulated at higher levels in both fractions"}, {"measurement": "viral protein in P1 fraction", "setting": "[1]", "value": "no protein was found"}, {"measurement": "viral protein in S1 fraction", "setting": "[1]", "value": "detectable levels of viral protein"}, {"measurement": "Gag processing in released particles", "setting": "[2]; [4]", "value": "accumulation of particle-associated uncleaved Gag precursor"}, {"measurement": "release of virus particles", "setting": "[2]; [4]", "value": "permitted release of virus particles"}]}]}
